From patent US20260275311, “CRISPR NUCLEASE POLYPEPTIDES AND GENE EDITING SYSTEMS COMPRISING SUCH” (ARBOR BIOTECHNOLOGIES, INC., published 2026)

T1: Nuclease M A373R A373R
T1 sequence: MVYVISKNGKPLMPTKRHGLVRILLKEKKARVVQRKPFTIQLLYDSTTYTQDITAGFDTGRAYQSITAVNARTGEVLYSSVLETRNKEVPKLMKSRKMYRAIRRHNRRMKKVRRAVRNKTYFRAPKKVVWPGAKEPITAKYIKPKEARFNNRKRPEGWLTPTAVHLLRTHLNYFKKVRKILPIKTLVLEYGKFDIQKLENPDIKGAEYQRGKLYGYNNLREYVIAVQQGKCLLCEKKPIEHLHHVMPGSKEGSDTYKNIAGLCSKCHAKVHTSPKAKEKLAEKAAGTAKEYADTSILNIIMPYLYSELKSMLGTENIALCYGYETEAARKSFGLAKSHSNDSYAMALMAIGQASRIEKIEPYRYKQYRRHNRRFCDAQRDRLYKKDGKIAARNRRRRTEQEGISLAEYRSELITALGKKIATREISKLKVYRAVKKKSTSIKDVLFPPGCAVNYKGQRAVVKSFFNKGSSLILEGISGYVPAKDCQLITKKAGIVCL

T2: Nuclease M N371R N371R
T2 sequence: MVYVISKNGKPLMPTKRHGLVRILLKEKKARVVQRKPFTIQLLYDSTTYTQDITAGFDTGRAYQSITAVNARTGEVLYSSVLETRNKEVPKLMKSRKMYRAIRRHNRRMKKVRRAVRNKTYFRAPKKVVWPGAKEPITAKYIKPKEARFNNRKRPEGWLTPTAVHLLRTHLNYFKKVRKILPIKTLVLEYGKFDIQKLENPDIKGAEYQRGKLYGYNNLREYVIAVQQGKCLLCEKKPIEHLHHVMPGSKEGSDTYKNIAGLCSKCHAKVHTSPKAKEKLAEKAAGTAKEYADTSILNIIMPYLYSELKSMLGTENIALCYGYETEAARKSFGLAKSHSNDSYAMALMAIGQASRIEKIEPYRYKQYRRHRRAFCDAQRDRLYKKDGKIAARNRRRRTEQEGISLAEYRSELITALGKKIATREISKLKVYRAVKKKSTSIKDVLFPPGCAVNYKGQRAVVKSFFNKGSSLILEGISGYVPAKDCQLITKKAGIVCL

T3: Nuclease K D582R/I53R/T734R (D582R,I53R,T734R)
T3 chain: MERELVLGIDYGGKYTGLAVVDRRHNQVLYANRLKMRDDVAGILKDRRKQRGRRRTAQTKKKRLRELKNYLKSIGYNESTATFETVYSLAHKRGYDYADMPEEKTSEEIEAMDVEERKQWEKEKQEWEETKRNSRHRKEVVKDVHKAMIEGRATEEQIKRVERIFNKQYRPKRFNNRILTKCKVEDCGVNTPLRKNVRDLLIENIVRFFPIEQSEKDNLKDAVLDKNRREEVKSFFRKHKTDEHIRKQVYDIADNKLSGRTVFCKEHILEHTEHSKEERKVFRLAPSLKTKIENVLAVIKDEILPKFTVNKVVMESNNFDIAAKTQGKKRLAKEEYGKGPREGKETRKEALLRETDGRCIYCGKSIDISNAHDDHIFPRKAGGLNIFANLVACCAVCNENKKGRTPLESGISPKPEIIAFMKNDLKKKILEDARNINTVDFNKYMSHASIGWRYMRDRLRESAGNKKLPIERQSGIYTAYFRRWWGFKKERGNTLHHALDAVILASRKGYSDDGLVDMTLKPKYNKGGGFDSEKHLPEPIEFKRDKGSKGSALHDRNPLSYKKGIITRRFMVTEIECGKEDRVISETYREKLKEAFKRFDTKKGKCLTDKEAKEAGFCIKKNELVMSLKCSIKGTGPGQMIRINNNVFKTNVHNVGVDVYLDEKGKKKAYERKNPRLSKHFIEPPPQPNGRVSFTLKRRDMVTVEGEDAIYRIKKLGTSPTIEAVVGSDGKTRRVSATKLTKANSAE

T4: Nuclease K D582R/G42R (D582R,G42R)
T4 chain: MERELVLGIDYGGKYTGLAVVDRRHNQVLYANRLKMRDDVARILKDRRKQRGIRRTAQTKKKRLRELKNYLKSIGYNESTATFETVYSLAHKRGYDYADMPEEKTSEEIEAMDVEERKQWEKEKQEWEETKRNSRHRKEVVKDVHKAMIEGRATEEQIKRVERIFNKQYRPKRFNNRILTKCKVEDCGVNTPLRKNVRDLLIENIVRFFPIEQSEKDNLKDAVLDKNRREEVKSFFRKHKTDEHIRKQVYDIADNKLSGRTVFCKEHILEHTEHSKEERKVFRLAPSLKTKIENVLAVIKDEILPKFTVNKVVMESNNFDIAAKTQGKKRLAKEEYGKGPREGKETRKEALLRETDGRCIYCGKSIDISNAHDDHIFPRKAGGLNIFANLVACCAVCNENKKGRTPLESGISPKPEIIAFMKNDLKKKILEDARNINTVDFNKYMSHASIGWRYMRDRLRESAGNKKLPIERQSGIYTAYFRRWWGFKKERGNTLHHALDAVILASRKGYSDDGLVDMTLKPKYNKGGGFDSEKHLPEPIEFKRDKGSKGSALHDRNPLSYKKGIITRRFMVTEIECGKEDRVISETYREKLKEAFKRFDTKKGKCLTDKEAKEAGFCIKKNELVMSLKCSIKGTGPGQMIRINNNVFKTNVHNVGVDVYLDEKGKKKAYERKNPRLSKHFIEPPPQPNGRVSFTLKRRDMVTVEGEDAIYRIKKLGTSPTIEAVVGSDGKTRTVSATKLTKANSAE


Legend:
Nuclease M A373R A373R = tested on: T1, Nuclease M A373R A373R; test: cell_activity; conditions: PAM TTAAA; HEK293T
Nuclease M N371R N371R = tested on: T2, Nuclease M N371R N371R; test: cell_activity; conditions: PAM TTAAA; HEK293T
[1] = molecular target: T3, Nuclease K D582R/I53R/T734R; test: cell_activity; PAM NGG; HEK293T; conditions: tags: N- and C-terminal NLS
Protocol: (§1) This Example describes indel assessment on mammalian targets using nuclease variants of Nuclease K comprising two or more substitutions identified as increasing indel activity in Example 8. 71 combination Nuclease K variants were tested.
(§2) Each Nuclease K variant and RNA guide (see Table 19) was cloned as described in Example 8. HEK293T cells were further transfected, followed by NGS analysis, as described in Example 8. For each target, indel ratios, referring to the percentage of NGS reads comprising indels, were calculated for the reference Nuclease K (SEQ ID NO: 65) and for each Nuclease K variant. The indel ratios shown in Table 20 were calculated as the average of two bioreplicates, each of which contained two technical replicates.

Nuclease K D582R/G42R = molecular target: T4, Nuclease K D582R/G42R; test: cell_activity; PAM NGG; HEK293T; conditions: tags: N- and C-terminal NLS
Protocol: as §1, §2

Molecule	binding signal (fold vs Nuclease M) (Nuclease M A373R A373R)	binding signal (fold vs Nuclease M) (Nuclease M N371R N371R)	activity [1]	activity (Nuclease K D582R/G42R)
GAGCCUGGUCCAUGGAGAGUGUCAACUACCCCCGUCUAAAGACGGAGGCAUGAGGUUUCGUAACCAAGUGUUGUACCUGCGGGUACAGUAGUUGAACAGGCGGCGAUGCGGCUGGGCACUCCAGGAUGCCACUCCCAGUCCCGGACACUGCCGACGAGCCGCAUCAAGCCGGGGGAGACCAACCGGCUAACGAUAGCCGAGCAAUUACCUAAAAAGAGGUGCAAAGGAAAUGGUAU / GAGCCTGGTCCATGGAGAGT / ACTCTCCATGGACCAGGCTC [Nuclease M VEGFA-T5 guide ; Nuclease M VEGFA-T5 target]	1.53	1.65	–	–
Nuclease K EMX1-T7 guide ; EMX1-T7 target (ssRNA ; dsDNA) RNA: CUUUAGCAAGGGACUAUUCAGUUACAGUUAAGGCUCUGAAAAGAGCCUUAAUUGUAAAACGCCUAUACAGUGAAGGGAUAUACGCUUGGGUUUGUCCAGCCUGAGCCUCUAUGCCAGAAAUGGCGCCUUCAUCGUGGGUUAGGACAUUUAAAUUUAAAAACUAUUCAGCACUGUUUGCUCUUGUCAGCUUGGUGGCAGA DNA 1: CTTTAGCAAGGGACTATTCA DNA 2: TGAATAGTCCCTTGCTAAAG	–	–	0.25 indel ratio	0.231 indel ratio
Nuclease K AAVS1-T3 guide ; AAVS1-T3 target (ssRNA ; dsDNA) RNA: UUGUGAGAAUGGUGCGUCCUGUUACAGUUAAGGCUCUGAAAAGAGCCUUAAUUGUAAAACGCCUAUACAGUGAAGGGAUAUACGCUUGGGUUUGUCCAGCCUGAGCCUCUAUGCCAGAAAUGGCGCCUUCAUCGUGGGUUAGGACAUUUAAAUUUAAAAACUAUUCAGCACUGUUUGCUCUUGUCAGCUUGGUGGCAGA DNA 1: TTGTGAGAATGGTGCGTCCT DNA 2: AGGACGCACCATTCTCACAA	–	–	0.27 indel ratio	0.221 indel ratio
